Target: T1, endogenous c-Myc of p53-/- mouse embryo fibroblasts (mouse, UniProt P01108-2 1-439, limits assumed)
T1 construct: Endogenous protein in a cell lysate
Assay: co-IP, summary of the experiments (endogenous proteins)
Excerpt: FIGS. 2A-F ARF—binds to c-Myc. FIGS. 2A-D, Coimmunoprecipitation of ARF and c-Myc. Cos-7 cells transfected with c-Myc and/or ARF were subjected to immunoprecipitation (IP) using anti-Mycfl (fl, full length; FIG. 2A) or anti-ARF (FIG. 2B) followed by immunoblot (IB) analysis using the indicated antibody. FIG. 2C, c-myc^{-/-} cells, ARF^{-/-} MEFs or p53^{-/-} MEFs were subjected to IP using anti-Mycfl followed by IB analysis. FIG. 2D, HeLa cells were subjected to IP using anti-p14ARF or anti-Mycfl followed by IB analysis. FIG. 2E, Coimmunoprecipitation of c-Myc deletions with ARF. Cos-7 cells transfected with the indicated c-Myc deletion mutant were subjected to IP with anti-ARF followed by IB analysis. FIG. 2F, Schematic representation of the structure of c-Myc and c-Myc deletions showing relative binding to ARF.
Immunoprecipitation and Immunoblotting Analysis. Cell lysates were prepared and coimmunoprecipitation of endogenous proteins was performed as described previously (Weber et al., 1999). For coimmunoprecipitation of exogenous proteins, cells were lysed in Ab lysis buffer (20 mM Tris, pH 7.5, 0.5% Triton X-100, 0.5% deoxycholic acid (DOC) and 0.5% SDS, 1 mM EDTA) and immunoprecipitates were subjected immunoblot analysis using anti-c-Mycfl (06-340, Upstate) or anti-ARF (Ab80, GeneTex; 07-543, Upstate) and enhanced chemiluminescence for detection. […]

T1 sequence (P01108 16-454 limits assumed): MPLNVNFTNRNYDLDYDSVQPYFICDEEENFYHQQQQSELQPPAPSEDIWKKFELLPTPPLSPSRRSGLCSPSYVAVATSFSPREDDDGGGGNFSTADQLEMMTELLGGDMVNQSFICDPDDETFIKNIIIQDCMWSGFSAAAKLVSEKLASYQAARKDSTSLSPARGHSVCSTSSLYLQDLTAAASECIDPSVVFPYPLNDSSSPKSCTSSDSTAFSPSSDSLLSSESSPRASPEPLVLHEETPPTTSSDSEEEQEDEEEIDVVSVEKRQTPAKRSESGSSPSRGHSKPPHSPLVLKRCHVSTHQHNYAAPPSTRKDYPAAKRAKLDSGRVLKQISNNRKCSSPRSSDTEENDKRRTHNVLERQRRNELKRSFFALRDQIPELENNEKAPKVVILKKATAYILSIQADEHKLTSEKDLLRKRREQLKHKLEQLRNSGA

binding result: binds
B1: mouse p19ARF (murine p19Arf) (other)
chain: MGRRFLVTVRIQRAGRPLQERVFLVKFVRSRRPRTASCALAFVNMLLRLERILRRGPHRNPGPGDDDGQRSRSSSSAQLRCRFELRGPHYLLPPGARRSAGRLPGHAGGAARVRGSAGCARCLGSPAARLGPRAGTSRHRAIFAFRWVLFVFRWVVFVYRWERRPDRRA
